Test results published in publication PMC6408259.

Target: T1, DJ-1 (human (endogenous in M17D neuroblastoma cells)), Q99497
T1 chain: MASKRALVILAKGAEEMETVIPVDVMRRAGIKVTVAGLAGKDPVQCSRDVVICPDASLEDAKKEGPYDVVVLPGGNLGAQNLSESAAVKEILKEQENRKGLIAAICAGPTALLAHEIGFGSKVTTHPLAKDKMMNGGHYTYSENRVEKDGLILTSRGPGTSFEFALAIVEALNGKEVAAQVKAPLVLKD
Assay: cross-linking
Details: remark: other sources report otherwise

stoichiometry N: 2
B1: DJ-1, Q99497 1-189 (natural protein)
chain: T1 chain
